Assay results as given in publication PMC7673487 (International Journal of Nanomedicine, 2020).

Tests used:
[1] = target: T1, recombinant human NRP-1 protein (human, UniProt O14786 22-856); assay: SPR
T1 sequence (looked up): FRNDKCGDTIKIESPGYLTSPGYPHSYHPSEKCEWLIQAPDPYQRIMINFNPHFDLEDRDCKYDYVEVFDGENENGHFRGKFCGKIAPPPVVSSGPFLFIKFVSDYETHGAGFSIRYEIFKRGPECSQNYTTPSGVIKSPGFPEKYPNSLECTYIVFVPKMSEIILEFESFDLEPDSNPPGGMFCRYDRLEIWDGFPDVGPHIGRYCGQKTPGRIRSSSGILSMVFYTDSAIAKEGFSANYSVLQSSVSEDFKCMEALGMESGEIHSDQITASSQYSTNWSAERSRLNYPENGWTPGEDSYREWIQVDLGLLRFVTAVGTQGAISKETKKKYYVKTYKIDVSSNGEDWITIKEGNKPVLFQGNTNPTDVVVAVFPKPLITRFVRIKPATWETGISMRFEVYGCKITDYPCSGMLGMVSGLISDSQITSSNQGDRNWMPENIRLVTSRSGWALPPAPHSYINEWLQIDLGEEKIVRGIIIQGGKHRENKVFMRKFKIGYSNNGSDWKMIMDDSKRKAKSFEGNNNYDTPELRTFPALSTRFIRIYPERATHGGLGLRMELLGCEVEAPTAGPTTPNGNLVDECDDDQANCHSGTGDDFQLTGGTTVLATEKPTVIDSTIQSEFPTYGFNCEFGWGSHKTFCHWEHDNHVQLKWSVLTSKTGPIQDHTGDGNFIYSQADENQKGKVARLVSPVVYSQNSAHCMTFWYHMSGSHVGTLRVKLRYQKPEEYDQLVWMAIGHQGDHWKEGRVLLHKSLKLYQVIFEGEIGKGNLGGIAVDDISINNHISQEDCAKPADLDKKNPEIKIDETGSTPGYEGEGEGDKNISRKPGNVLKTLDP

[2] = target: T2, recombinant rat NRP-1 protein (rat, UniProt Q9QWJ9 22-855); assay: SPR
T2 sequence (looked up): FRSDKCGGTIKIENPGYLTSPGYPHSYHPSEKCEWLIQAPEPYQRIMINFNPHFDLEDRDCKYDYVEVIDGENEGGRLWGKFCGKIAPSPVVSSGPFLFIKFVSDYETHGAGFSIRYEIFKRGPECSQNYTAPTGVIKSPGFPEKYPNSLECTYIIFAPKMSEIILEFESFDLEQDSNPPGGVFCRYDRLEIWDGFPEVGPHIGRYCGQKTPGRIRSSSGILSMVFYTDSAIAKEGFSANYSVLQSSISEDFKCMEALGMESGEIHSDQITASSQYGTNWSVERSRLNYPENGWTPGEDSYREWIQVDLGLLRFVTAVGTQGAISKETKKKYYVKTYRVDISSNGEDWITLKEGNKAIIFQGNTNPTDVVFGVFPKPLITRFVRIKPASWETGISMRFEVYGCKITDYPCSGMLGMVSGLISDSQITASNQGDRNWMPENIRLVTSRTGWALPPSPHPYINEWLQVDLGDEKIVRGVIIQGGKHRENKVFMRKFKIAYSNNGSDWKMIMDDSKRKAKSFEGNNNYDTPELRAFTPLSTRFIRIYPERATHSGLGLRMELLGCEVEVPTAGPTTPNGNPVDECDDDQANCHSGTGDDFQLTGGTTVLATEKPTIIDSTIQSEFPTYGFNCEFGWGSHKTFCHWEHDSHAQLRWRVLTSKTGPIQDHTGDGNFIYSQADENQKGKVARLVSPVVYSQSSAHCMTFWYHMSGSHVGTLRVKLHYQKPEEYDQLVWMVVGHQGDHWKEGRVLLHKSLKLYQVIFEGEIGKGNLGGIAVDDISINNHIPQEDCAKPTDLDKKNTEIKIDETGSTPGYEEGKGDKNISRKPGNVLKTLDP

Kd [1]: 0.5 µM
Kd [2]: 8.7 µM
B1: KDKPPR peptide (peptide)
peptide: KDKPPR
